{"source": "paper doi:10.1101/2020.11.25.397760", "about": "(bioRxiv, 2020)", "proteins": {"B1": {"name": "FliP (natural protein, Salmonella enterica serovar Typhimurium)", "chain": "QLPGLISQPLAGGGQSWSLSVQTLVFITSLTFLPAILLMMTSFTRIIIVFGLLRNALGTPSAPPNQVLLGLALFLTFFIMSPVIDKIYVDAYQPFSEQKISMQEALDKGAQPLRAFMLRQTREADLALFARLANSGPLQGPEAVPMRILLPAYVTSELKTAFQIGFTIFIPFLIIDLVIASVLMALGMMMVPPATIALPFKLMLFVLVDGWQLLMGSLAQSFYS"}}, "target": "the molecule itself", "test": "electron microscopy"}
{"protein": "B1", "values": [{"measurement": "binding result", "value": "binds"}]}
